# Measurements as given in patent publication US20060148057A1, “Thioredoxin mutants and uses thereof” (priority 2002, published 2006).
# System: caspase 3
# Assay: ASK1-induced caspase 3 activity assay in BAEC (Ac-DEVD-AMC substrate)
# Type: cell-based, Bovine
# Conditions: co-expression with ASK1; n=4, p<0.05
# Method: Caspase 3 activity assay: Caspase 3 activity was measured with a Caspase 3 fluorescence kit (Sigma) according to the Manufacturer's protocol. Briefly, BAEC were harvested in Caspase 3 lysis buffer (25 mM Hepes, pH 7.4, 5 mM CHAPS, 5 mM DTT) and incubated on ice for 15-20 min followed by a centrifugation at 14,000× g for 10-15 min at 4° C. For each reaction, 5 μl (200 μg) of cell lysate was incubated with 200 μl of 16 μM Caspase 3 peptide substrate acetyl-ASP-Glu-Val-Asp-7 amido-4-methylcoumarin (Ac-DEVD-AMC) in the assay buffer (25 mM Hepes, pH 7.4, 5 mM EDTA, 0.1% CHAPS, 5 mM DTT) in the presence or absence of 100 μM Caspase 3 inhibitor (Ac-DEVD-CHO). The reaction was incubated in the dark for 1-1.5 h and fluorescence was measured in a fluorescence plate reader. The measured fluorescence was used as an arbitrary unit.
# Then the effects. of Trx on ASK1-induced caspase 3 activation, a hallmark of the execution of apoptotic cell death (Green D R. Apoptotic pathways: paper wraps stone blunts scissors. Cell. 102:1-4 (2000); Hengartner MO. The biochemistry of apoptosis. Nature. 407:770-6 2000)) was examined. Caspase 3 activity was determined by an in vitro assay using peptide substrate acetyl-ASP-Glu-Val-Asp-7 amido-4-methylcounarin (Ac-DEVD-AMC). Overexpression of ASK1 in BAEC increased caspase 3 activity compared to the control cells (FIG. 6B).
molecule,measurement,value
"Trx-CS: double-mutant of C32S and C35S of Trx (protein, left off: a dimerising Fc or GST; large carriers; small tags and cut ends) MVKQIESKTAFQEALDAAGDKLVVVDFSATWSGPSKMIKPFFHSLSEKYSNVIFLEVDVDDCQDVASECEVKCMPTFQFFKKGQKVGEFSGANKEKLEATINELV",inhibition of ASK1-induced caspase 3 activity,failed to block
